Consider 2 substances from patent US10427126B2, “System and method for longitudinal analysis of peptide synthesis” (Roche Sequencing Solutions, Inc., priority 2015, dated 2019).

Assay [1] deals with T1, streptavidin (Streptomyces avidinii, UniProt P22629). The note with it: peptide including the binder sequence; cited from earlier work.
Assay [2] concerns the target T1, streptavidin. Nature of the assay: Cy5-labeled streptavidin binding to control peptide features on a peptide array (fluorescence signal output, FIG. 12). An excerpt: Whereas the hypothetical data presented in FIGS. 8-11 are for two example peptide arrays, actual signal output data following interrogation of a population of control peptide features can be presented in alternative or additional formats. With reference to FIG. 12, data was collected for a peptide array synthesis operation including twelve total synthesis periods. Control peptide features having the streptavidin binder sequence WTHPQFE (SEQ ID NO:1) were synthesized over three consecutive and uninterrupted synthesis periods (e.g., see FIG. 3) with control peptide features synthesized beginning with each of the first ten synthesis periods. […] The signal output is measured for each of the control peptide features using one or more interrogation and detection techniques as described herein. […]
Control peptide features are analyzed following the completion of a synthesis operation by array deprotection, streptavidin binding, and array scanning. […] Streptavidin fluorescence signal is detected by scanning the array at 2 μm resolution and 15% gain with a 635 nm excitation wavelength using an MS200 microarray scanner.
Box and whisker plots for analysis of control peptide feature data are prepared in a two-part process. First, data is aggregated for a plurality of synthesis operations that were individually determined to pass a quality control assessment. […]

T1 sequence (P22629 25-183, species assumed): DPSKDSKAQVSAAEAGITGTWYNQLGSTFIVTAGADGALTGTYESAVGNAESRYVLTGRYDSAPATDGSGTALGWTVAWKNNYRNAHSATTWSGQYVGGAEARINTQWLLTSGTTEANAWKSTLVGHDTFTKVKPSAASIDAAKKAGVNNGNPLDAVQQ

For the substance FDEWL, the binding by streptavidin result with streptavidin [1] is recorded as “can be bound by streptavidin”.

For WTHPQFE, the “signal output as percentage of the aggregate data (2^14.3 units)” value in the assay with streptavidin [2] (fourth synthesis operation, synthesis period four) is “about 5%”; with streptavidin [2] (third synthesis operation), “about 54%”.
